In a protein production outcome set (Wang et al. 2014):

Assay: label from the status in PepcDB records

Sequence	protein production
MRFFVFLKTLQSRSFCIFQQSFLLFFTSFFIIFVSNLCFISRGYGQNPPSLPAEPPSPQLLLPLDDLIPNDPSSAPAEPNSDSAATILEDFDAVHQSYAQRTEQRKEAEILRLLKELKFCADVEKARKISQQLQRLWSQSGSETIDLLMLWAENAINADNYGLALDYIDNALALLPTYAEGWIRRAWVHIQLSDFKLAMLDLNHALKLEPRNYIAFFELGITMEATERPKLALKAYETALEYYPQMQKVQKRIEELLDKQSPQAL	failed
MRFGRFLAVVACATLLAACASTPTPPAGELSGTPTALESGPKKDPLNTLNSTGRAGTLSRSTVVNVDQSSVDWLRGPSSDIWDRIRKGFAMPDLEGTLVDDRTQWYAARPDYMERMVGRSSRYLYHIVEELERRKMPTELALLPFVESAFNPQAESTAKAAGMWQFIPSTGKTYNLKQNMFRDERRDVLASTDAALDYLQRLYDMFGDWQLALAAYNWGEGAVSRAIARNQARGLPTDYASLTMPTETRYYVPKLQAVKNIIANPAAYGVRLPEIPDHPYFVTVTTSRDIDVALAAKLANMPLDEFKALNPSFNRPVILGAANPQILLPFENAERFQYNLNTYRGGLSSWTAVTVDSRERVESLAARLNVDVDTLREINRIPKGMRLKAGSTVMIPRTERHDQDISASLVDTAMLAVEPDVPDAKRVVVRAGRKDTVSTVARRYGVSVKQVQSWNKLSGSKLVAGQSLVLMLRPNSAAAMRAERAGDEDDTPAKAAPHGKSGGKTQAVAKSEKYDKVEKSSRSAKAEPRKRVVVEASPHSSTSKSSGKSATRESKSSPTPATKSKSSRAQ	failed
MRFKISLTTRLSLIFSAVMLTVWWLSSFILISTLNDYFDNQDRDFLTGKLQLTEEFLKTETFRNKTDIKSLSEKINDAMVGHNGLFISIKNMENEKIVELYAKNSVVPAVLLNKSGDILDYMIQTEENNTVYRSISRRVAVTPEQGKSKHVIITVATDTGYHTLLMDKLSTWLFWFNIGLVFISVFLGWLTTRIGLKPLREMTSLASSMTVHSLDQRLNPDLAPPEISETMQEFNNMFDRLEGAFRKLSDFSSDIAHELRTPVSNLMMQTQFALAKERDVSHYREILFANLEELKRLSRMTSDMLFLARSEHGLLRLDKHDVDLAAELNELRELFEPLADETGKTITVEGEGVVAGDSDMLRRAFSNLLSNAIKYSPDNTCTAIHLERDSDCVNVMITNTMSGQVPANLERLFDRFYRADSSRFYNTEGAGLGLSITRSIIHAHGGELSAEQQGREIVFKVRLLMD	failed
MRFPVLSRFLHPDPRIRRELVELLYTSLPQVMAIGVTSVTGALALTLLGDDPGYAVITFFILVTATARVFSLMRYKARAARFTDADVVRWERLYGAGATAFGLALGALSFRALQLGDAPGAWIAFGLSMSYCVGMVSRAAIRPWIILTAAAALLMPTMIAGLMRPELAYKIGAGMLVLFWLTLREASKHLSAAFTERLEAKHRLARQATHDFLTDLPNRAGFLQALSDMAGNFTVVAIDLDGFKPINDRHGHHTGDDLLRQVAERLTTCVGADGVAARFGGDEFMLLKPVTSAEQGRDEALALARKAVFDLSMPYLLADLPVCIGASAGIAISHAALAGGNTAQLLERVDRALYVAKRAGGGCAWADGDIEPSCCPRSTPLAKDSAAA	failed
MRFRFGVVVPPAVAGARPELLVVGSRPELGRWEPRGAVRLRPAGTAAGDGALALQEPGLWLGEVELAAEEAAQDGAEPGRVDTFWYKFLKREPGGELSWEGNGPHHDRCCTYNENNLVDGVYCLPIGHWIEATGHTNEMKHTTDFYFNIAGHQAMHYSRILPNIWLGSCPRQVEHVTIKLKHELGITAVMNFQTEWDIVQNSSGCNRYPEPMTPDTMIKLYREEGLAYIWMPTPDMSTEGRVQMLPQAVCLLHALLEKGHIVYVHCNAGVGRSTAAVCGWLQYVMGWNLRKVQYFLMAKRPAVYIDEEALARAQEDFFQKFGKVRSSVCSL	failed
MRFRYAMVCSSNQNRSMEAHALLKRQGLDVASYGTGSHVKLPGPSLREPNVYDFGTPYKQMFDELRRKDPELYKRNGILQMIKRNLSVKLAPQRWQDNAGDGVFDVVMTFEEKVFDSVLEDLNNREQSLTKTILVMNLEVKDNHEEAAIGGRLALELCQEIEGNETWEDTIDDIVAGFEKQHRRKLVYSISFY	failed
MRFSREALLELEASRLAPYAQKARDTRGRAHPEPESLYRTPYQKDRDRILHTTAFRRLEYKTQVLPGWAGDYYRTRLTHTLEVAQVSRSIARALGLNEDLTEAIALSHDLGHPPFGHTGEHVLNALMQDHGGFEHNAQALRILTHLEVRYPGFRGLNLTYEVLEGIATHEAAYSPGFKPLYEGQGTLEAQVVDLSDAIAYAAHDLDDGLRAGLLHPEELKEVELLQALALEEGLDLLRLPELDRRVLVRQLLGYFITAAIEATHRRVEEAGVQSAEAVRRHPSRLAALGEEAEKALKALKAFLMERFYRHPEVLRERRKAEAVLEGLFAAYTRYPELLPREVQAKIPEEGLERAVCDYIAGMTDRFALEAYRRLSP	not failed
MRGETELKQERSIALPLAISIIAISFAAVFVKMSSAPSSILSMYRLWIIVLLMLPIVWKKREEFSKIQIKDWGFLIGSGFFLALHFLLWFESLKHTTVASSTIILALQPIVSLVGGFFLFKERTTYSAIATMGIAILGVVCIGWGDLGLSEQAIYGDILSFLSVIAVVGYLFIGQTTVKKVSHWIYSFTVFAFAGIFMGIYNIVLQVPFTGYTKWDWTVFLLLAVVPTVSHVINNWLLNYVNATTISMSILGEPVGASILAFFLLGERLNAMQMIGSILVLFGVSVFLLQQQKRTAKNVVNEPVYTQEL	failed
MRGGGILDYIGYFLVAIIVIFVVVKLLEWPIKMLVKLIINGVIGAIMLFALNIFGKYIGISIGINIVTALIAGIFGIPGVIFLVILKFIM	failed
MRGSVAALLLAAGRSIRMGRCKQLLPLGNTTVLGRCLDTLRRGGVGEIAVVVSADGEQVARAAAGHGVRVVVNPDREGDMASSVRAGRDAFGSAVGGVIVSLCDQPLVAAGTVARLRDRHATEPGRIIIPTHGGRRGHPLLFPLPVLAELEDGLTLRDLVVCDPARVCCVAVADPGILIDMDTPEDYRHVCRLMAPQEGLSLRLEHHHHHH	failed
MRGVFLDKDKIPYDLVTKKLNEWYTSIKNDQVEQAEIIKTEVEKELLNMEENQDALLYYQLLEFRHEIMLSYMKSKEIEDLNNAYETIKEIEKQGQLTGMLEYYFYFFKGMYEFRRKELISAISAYRIAESKLSEVEDEIEKAEFFFKVSYVYYYMKQTYFSMNYANRALKIFREYEEYAVQTVRCQFIVAGNLIDSLEYERALEQFLKSLEISKESNIEHLIAMSHMNIGICYDELKEYKKASQHLILALEIFEKSKHSFLTKTLFTLTYVEAKQQNYNVALIYFRKGRFIADKSDDKEYSAKFKILEGLFFSDGETQLIKNAFSYLASRKMFADVENFSIEVADYFHEQGNLMLSNEYYRMSIEARRKIKKGEIIDENQPDSIGSSDFK	failed
MRGVSELEVGKSNLPAESELELGLGLSLGGGAWKERGRILTAKDFPSVGSKRSAESSSHQGASPPRSSQVVGWPPIGLHRMNSLVNNQAMKAARAEEGDGEKKVVKNDELKDVSMKVNPKVQGLGFVKVNMDGVGIGRKVDMRAHSSYENLAQTLEEMFFGMTGTTCREKVKPLRLLDGSSDFVLTYEDKEGDWMLVGDVPWRMFINSVKRLRIMGTSEASGLAPRRQEQKDRQRNNPV	failed
MRHLGLRNVISKLPAKINAAREFATSALVLIVFFGLLLILGRQFFRDSVVLEPISVPLHLEESGLNGGVAAQWLIDSIRTIQRNAASTKETKAIQATPKQINIEMPGVGFSLATIEQIIREALALPSPFIKGEIIKLGDSYQIRLRLPGAPYIHIEQPLGDKDVEKLIAKSAEKILLLKDPYIVAVDYYRKAEYKKAIEVINNMQPGADRLQSAYNELLLAAIATKQLEHEKASLHLKKADQLAPNLGVVKLNQAIQHALKKDPSTALSKYKEAKQLNLELQDDAFHSQILTELGRELVTDDSAEEKLALFRKAIDLAPENASAIIRLAEVLAHRQRPEENNEMLKLYEAAIGLVPNKPKYHFQYGKTLWEMGNKDKGCVQVKKAVELKPAMRVLANKYQCSK	failed
MRHTLPIAPQFYVTAPQSCPYLEGRLERKLFTALQGEHAQKLNDTLSKQGFRRSQNVLYRPSCAECSACLSARIRVADFEPTRTQRRVMKRNADLRRNATSPWATEDQYALFRRYLDDRHADGGMADMDIFEFAAMIEETPIRSRVIEYSRPGDTPSNRPLSAVCLTDIFDDGLSMVYSFYDPDLAGRSLGAYVILDHIEIAREAGLPYVYLGYWVPGSRKMGYKATYSALEIYKGGRWQAIGQPSDHRAELHPLSVDPIAEQVARISLPEARSGDRSRDLEHHHHHH	not failed
MRIDIVTIFPACLDPLRQSLPGKAIESGLVDLNVHDLRRWTHDVHHSVDDAPYGGGPGMVMKAPVWGEALDEICSSETLLIVPTPAGVLFTQATAQRWTTESHLVFACGRYEGIDQRVVQDAARRMRVEEVSIGDYVLPGGESAAVVMVEAVLRLLAGVLGNPASHQDDSHSTGLDGLLEGPSYTRPASWRGLDVPEVLLSGDHARIAAWRREVSLQRTRERRPDLSHPD	failed
MRIFFLIFLLAYVGGNVYIFIRTLQMLSGFSLAMKILLSVIYWLVAFSLVIAMLTRHIDMPVILSKSMFHIGSVWLVFTLYMIFALLIADVTKIFVPSLNHGFYYALGATCCLLLYGYYNYRHPQVNKIDVSLDKPIEGNGINIVAVSDVHLGYGTGKAMLKEYVDMINAQHPDLILIGGDLIDNSLTPLYKENMAEELAQLKAPLGIYMVPGNHEYISGIDESVRFLKDTPIQLLRDSVVTLPNGVQIIGRDDRSNRSRHSLPTLLKQADRSKPIILLDHQPYNLAKTDSLGIDLQFSGHTHHGQIWPISWVTDRIYEQSHGYRKWSQSHIYVSSGLSLWGPPFRIGTNSDMAVFHLNQMAK	not failed
MRIGHGFDVHKFGENGSGPLIIGGVRIPYEKGLLAHSDGDVALHAATDALLGAAALGDIGKLFPDTDPAFKGADSRGLLREAYRRILAKGYKLGNLDITIIAQAPKMAPHIPQMRVNLAEDLQCHMDDINVKATTTEQLGFTGRGEGIACEAVVLLVNVEQG	not failed
MRIGVIGTGTIATAVVHGIAGDGHAITVSERSAANAQALAAAYPNVRVASNQVVVEECDILTLGLMAEQAPEILGPLPFRADQQVITLMAGATLEQVAQMVAPARAAAIMMPFPSIAQGGSPIMMQGDADLVAALFGARNRIFAVRDAAEMAAYLCAQAVLSPVARMVDDAAGWLATRVSDPVQGEAFLRALVASSLADTDSASLIEALNTPGGYNQRLRLHMEGAGMGDSLRAGLDALETGA	failed
MRIIIVGGGKVGYQVARQCAAWGCDVVLVENDRQKGEKIKGELGLQVVIGDGTKAHFLKKAGAEEADIVVAVTDDDQDNLVICQLAERQFKAKRTLALVNNPGNEKLFRWLGVNQVIGPASLILGLIQERVDMDSTAAMWMQGIKDLKMIQFKLGPEAPVLGRKIKTIPFPNECILVTVVRENTAIVPCGNTVLEEGDLVFALANPAVQAELERVLTGKNDN	failed
MRILAFPYTHTLSHLSRVLAVALELRRMGHEVVFAGESAKVSFVSQQGFDVVPIHEPDPEMLFGNIRSGKLRFVEDAELLQMLTADIEVIRSLKPDLVLSDGRFSAPLSTHLTNVRHAAIVNASSTEYRALPYVPFFDWMPPWLISRDAMIWKALVRLNLFLEMKLFDNVMKVFKRLSRELNTNRTVTATNCLTGKDITLLADIPEYFPSRNLPASYHYVGPLTWKSVLAPPAWWPLDIPSSPLVYVTMGTTGVSEFFSKLGPSLSTSFFSSIVTTGGQSSELKPMPGKVYVESYLDGDLVMERSDVVICHGGNGTIYQALSHGKPVIGIPTIPDQKFNMRRVEAMGFGKSLDLKQFLEKPSLLADTVKQVLSDHSFRNSAQKIQAVLKSYNAATTSAKILIDSILLEHHHHHH	failed
